Laboratory results taken from patent EP4700040A1 (Shenzhen Loggene Life Science & Technology Co., Ltd., dated 2024).
Where two headings read alike, the source gives them in different places.

Experiments:
[1] = biological target: T1, Recombinant human IL6 protein with C-terminal six-histidine tag (human, UniProt P05231 29-212); test: homogeneous split-luciferase sandwich with OL-453, signal rises with IL6
T1 construct: also called human interleukin 6

[2] = biological target: Large subunit-rSCFV5 fusion protein; test: cell-based or functional assay
[3] = biological target: Large subunit-rSCFV5 fusion protein; test: cell-based or functional assay; remark: listed apart in the source
[4] = biological target: Large subunit-rSCFV5 fusion protein; test: cell-based or functional assay; remark: listed apart in the source
[5] = biological target: Large subunit-rSCFV5 fusion protein; test: cell-based or functional assay; remark: listed apart in the source
[6] = biological target: Large subunit-rSCFV5 fusion protein; test: cell-based or functional assay; remark: listed apart in the source
[7] = biological target: T1, Recombinant human IL6 protein with …; test: homogeneous split-luciferase sandwich with RB073-449-1, signal rises with IL6

Binder	binding result [1]	Signal-to-noise ratio [2]	Signal-to-noise ratio at 1000 pg/ml [3]	Signal-to-noise ratio at 1000 pg/ml [4]	Signal-to-noise ratio [5]	Signal-to-noise ratio at 1000 pg/ml [6]	binding result [7]
rSCFV18-small subunit P114 fusion protein (other) AHHHHHHGSGDIVLTQTPSPVSAAVGGTVSINCQSSQSVYKNNRLSWYQQKPGQPPKFLIYDTSKLASGVPSRFSGSGSGTQFTLTISDLECDDAATYYCAGGYSNNIGAFGGGTEVVVKSSGGGGSGGGGGGSSRSSQSLEESRGRLVTPGGSLTLTCSVSGFSLSIYNMGWVRQAPGEGLEWIGVIGSSGNTYYASWAKGRFTISRNTNDNTVDLKITSPTTGDTATYFCARGFSSFDIWGPGTLVTVSSGGGGSGGGGSGGGGSVTGYRLFEEIL		12.2	1.44	3.8	1.9	3.8	
fusion protein OL-453 of the large subunit with human IL6 SCFV antibody 453 (other, also called large subunit fusion protein OL-453) VFTLEDFVGDWEQTAAYNLDQVLEQGGVSSLLQNLAVSVTPIQRIVRSGENALKIDIHVIIPYEGLSADQMAQIEEVFKVVYPVDDHHFKVILPYGTLVIDGVTPNMLNYFGRPYEGIAVFDGKKITVTGTLWNGNKIIDERLITPDGSMLFRVTINSGSSGGGGSGGGGSGGQAVLTQPSSVSKSLGQSVSITCSGSNIGSSAVGWYQQLPGSGLKTIIYSTSSRPSGVPDRFSGSKSGNTATLTISSLQAEDEADYYCATGDRGNYGGVFGSGTRLTVLSSGGGGSGGGGGGSSRSSQVQLQESGPSLVKPSQTLSLTCTVSGFSLTSYGVGWVRQAPGKTPEWLGGIDRDGDMSYNPALKSRLSITRDTSKSQVSLSLRSVATEDTAVYYCARSSYDSHYYGDYYDVDVWGRGLLVTVSSGQAGHHHHHH							binds

Results, then the binder that gave them:

binding result [1]	Signal-to-noise ratio [2]	Signal-to-noise ratio at 1000 pg/ml [3]	Signal-to-noise ratio at 1000 pg/ml [4]	Signal-to-noise ratio [5]	Signal-to-noise ratio at 1000 pg/ml [6]	binding result [7]	Binder
binds							fusion protein RB073-449-1 of the small subunit peptide RB073 with human IL6 SCFV antibody 449-1 (other, also called small subunit fusion protein RB073-449-1) VEGYRLFDRKSGGGGSGGGGSGGGGSQSALTQPSSVSKSLGQSVSITCSGSSSNVGYGNYVSWYQQVPGSAPKFLIYGATSRASGVPARFSGSRSGNTATLSISSLQAEDEADYYCASYDSSSYGVFGSGTTLTVLSSGGGGSGGGGGGSSRSSQVRLQESGPSLVKPSQTLSLTCTVSGFSLTNYPVGWVRQAPGKALEWLGGISSGGGTAYNPALKSRLSFTRDTSKNQVSLSLSSVTSEDTAVYYCTRGNGDYVLRYGADVWGRGLLVTVSSGSGHHHHHH
	48	38.9	14.5				rSCFV18-RB073 fusion protein (other) AHHHHHHGSGDIVLTQTPSPVSAAVGGTVSINCQSSQSVYKNNRLSWYQQKPGQPPKFLIYDTSKLASGVPSRFSGSGSGTQFTLTISDLECDDAATYYCAGGYSNNIGAFGGGTEVVVKSSGGGGSGGGGGGSSRSSQSLEESRGRLVTPGGSLTLTCSVSGFSLSIYNMGWVRQAPGEGLEWIGVIGSSGNTYYASWAKGRFTISRNTNDNTVDLKITSPTTGDTATYFCARGFSSFDIWGPGTLVTVSSGGGGSGGGGSGGGGSVEGYRLFDRKS
